Laboratory results from patent publication US11236354B2, “Glyphosate-n-acetyltransferase (GLYAT) sequences and methods of use” (PIONEER HI-BRED INTERNATIONAL, INC., priority 2013, dated 2022).

Assays:
[1] = tested on: N[C@@H](CC(=O)O)C(=O)O; experiment: cells, lysate or membranes named; conditions: 37.0 °C
Protocol: (§1) Kinetic parameters for various substrates were obtained using a range of seven substrate concentrations plus a blank containing none of the varied substrate. The non-varied substrate was present at a saturating concentration. Six-microliter aliquots of 50-fold concentrated stock solutions of the varied substrate were placed in a 96-well assay plate (Greiner BioOne UV-Star). Reactions were started with the addition of 294 ul of 25 mM Hepes, pH 7.0, 100 mM KCL, 10% ethylene glycol, the non-varied substrate and 10 to 200 nM enzyme. Absorbance was monitored for one minute with a Spectramax 384 Plus plate reader (Molecular Devices). If the amino acid present at position 30 (29 if alanine is absent at position 2) was cysteine, absorbance was monitored at 235 nm, which directly detects cleavage of the sulfoester bond of acetyl CoA. If the amino acid present at position 30 (29 if alanine is absent at position 2) was isoleucine, 0.5 mM 5,5′-dithiobis-(2-nitrobenzoic acid), which reacts with the coenzyme A thiol generated in the enzyme catalyzed reaction, was included in the reaction mix and absorbance was monitored at 412 nm. Initial rates were processed by the Softmax software to obtain kinetic parameters, using the double-reciprocal transformation.

[2] = tested on: O=C(O)CNCP(=O)(O)O; experiment: cells, lysate or membranes named; conditions: 37.0 °C
Protocol: as §1

[3] = tested on: O=C(O)CNCP(=O)(O)O; experiment: Substrate saturation kinetic analysis of purified GLYAT; format: biochemical; conditions: other: SEQ ID NO:7, pH 7.0, non-varied substrate saturating, 37.0 °C
Protocol: E. coli cultures in LB or 2×YT were grown overnight at 37° C. to saturation. The cells were used as a 2% inoculum into fresh media. When OD reached 0.6, IPTG was added to 0.2 mM and growth was continued for at least 6 hours. Cells were harvested by centrifugation and stored at −80° C. Cells were lysed with BPER (Pierce) containing 1 mM dithiothreitol, 0.2 mg/ml lysozyme, 2 mg/ml protease inhibitor cocktail (Sigma bacterial cell cocktail, P8465) and endonuclease. Lysate supernatants were passed through a column of NHS-activated Agarose (Thermo, #26197) derivatized with coenzyme A. Columns were washed with 25 mM Hepes, pH 7, containing progressively higher concentrations of KCl, then eluted with 25 mM Hepes, 100 mM KCl, 10% ethylene glycol and 1 mM acetyl CoA. Purity as evaluated by polyacrylamide gel electrophoresis was deemed consistently high enough to be assumed to be 100%. Protein concentration was determined with the Bradford assay using a large-scale lot of produced GLYAT protein as standard.
Kinetic parameters for various substrates were obtained using a range of seven substrate concentrations plus a blank containing none of the varied substrate. The non-varied substrate was present at a saturating concentration. Six-microliter aliquots of 50-fold concentrated stock solutions of the varied substrate were placed in a 96-well assay plate (Greiner BioOne UV-Star). […] Absorbance was monitored for one minute with a Spectramax 384 Plus plate reader (Molecular Devices). If the amino acid present at position 30 (29 if alanine is absent at position 2) was cysteine, absorbance was monitored at 235 nm, which directly detects cleavage of the sulfoester bond of acetyl CoA. If the amino acid present at position 30 (29 if alanine is absent at position 2) was isoleucine, 0.5 mM 5,5′-dithiobis-(2-nitrobenzoic acid), which reacts with the coenzyme A thiol generated in the enzyme catalyzed reaction, was included in the reaction mix and absorbance was monitored at 412 nm. […]

[4] = other: SEQ ID NO:8, pH 7.0, non-varied substrate saturating
[5] = other: SEQ ID NO:2, pH 7.0, non-varied substrate saturating
[6] = other: SEQ ID NO:1, pH 7.0, non-varied substrate saturating
[7] = other: SEQ ID NO:10, pH 7.0, non-varied substrate saturating

GLYAT variant SEQ ID NO:8 (derived from SEQ ID NO:1 and 2) (Bacillus licheniformis DSM 13 = ATCC 14580; A28V/D131E/E119K/E14D/E65Q/E67K/E68K/E83D/G37R/G38S/I132T/I135A/I15L/I53V/I91V/K101R/K144R/K58Q/L105M/L106I/L26I/L36T/L97I/M75V/N8S/R47G/R92K/T89S/V114A/Y130F/Y45F)
Km [1, 4]: 60000 µM
kcat [1, 4]: 1.42 s⁻¹
kcat/Km [1, 4]: 23.5 M⁻¹ s⁻¹
Km [2, 4]: 390 µM
kcat [2, 4]: 11.4 s⁻¹
kcat/Km [2, 4]: 29650 M⁻¹ s⁻¹

GLYAT (glyphosate-N-acetyltransferase), parent, SEQ ID NO:2 (Bacillus licheniformis DSM 13 = ATCC 14580; A28V/D131E/E119K/E63D/E65Q/E67Q/E68K/E83D/E96Q/G37R/I132T/I135V/I15L/I2L/K101R/K144R/K58Q/L105M/L97I/R18K/T89S/V114A/Y130F/Y45F)
Km [1, 5]: 47600 µM
kcat [1, 5]: 0.887 s⁻¹
kcat/Km [1, 5]: 18.7 M⁻¹ s⁻¹
Km [2, 5]: 1380 µM
kcat [2, 5]: 4.52 s⁻¹
kcat/Km [2, 5]: 3270 M⁻¹ s⁻¹

GLYAT variant SEQ ID NO:7 (derived from SEQ ID NO:1 and 2) (Bacillus licheniformis DSM 13 = ATCC 14580; A28V/D131E/E119K/E14D/E65Q/E67K/E68K/E79G/E83D/G37R/G38S/G48A/I132L/I135A/I15L/I19V/I2L/I53V/I91V/K101R/K144R/K58Q/L105M/L106I/L26I/L36T/L97I/M75V/N109F/R47G/R92K/T33S/T89S/V114A/Y130F/Y31W/Y45F)
Km [3]: 800 µM
kcat [3]: 7.13 s⁻¹
kcat/Km [3]: 8870 M⁻¹ s⁻¹

GLYAT (glyphosate-N-acetyltransferase), parent, SEQ ID NO:1 (Bacillus licheniformis DSM 13 = ATCC 14580; E119R/E14D/E65Q/E67K/E68K/G37R/G38S/I132T/I135V/I15L/I19V/I53V/I91V/K101R/K144R/K58Q/L105M/L106I/L145I/L26I/L36T/L97I/M75V/R47G/R92K/T33S/T89S/V114A/Y130F/Y31F/Y45F)
Km [1, 6]: 32900 µM
kcat [1, 6]: 7.3 s⁻¹
kcat/Km [1, 6]: 229 M⁻¹ s⁻¹
Km [2, 6]: 1360 µM
kcat [2, 6]: 24.23 s⁻¹
kcat/Km [2, 6]: 18000 M⁻¹ s⁻¹

GLYAT variant SEQ ID NO:10 (derived from SEQ ID NO:1 and 2) (Bacillus licheniformis DSM 13 = ATCC 14580; A28V/D131E/E14D/E65Q/E67K/E68K/G37R/G38S/H61R/I132T/I135A/I15L/I19V/I53V/I91V/K101R/K144R/K58Q/L105M/L106I/L26I/L97I/M75V/R47G/R92K/T89S/V114A/Y130F/Y45F)
Km [1, 7]: 89300 µM
kcat [1, 7]: 2.48 s⁻¹
kcat/Km [1, 7]: 28.2 M⁻¹ s⁻¹
Km [2, 7]: 370 µM
kcat [2, 7]: 11.6 s⁻¹
kcat/Km [2, 7]: 31680 M⁻¹ s⁻¹
